Read-outs that look alike come from different tables or passages of the source. Marks after values point to notes of the source that are not given here.
Columns and labels:
[1] = Qualitative assessment of local injection sites (erythema, swelling size, induration); type: in vivo, Yucatan miniature pig (Sus scrofa domestica)
Experimental: (§1) The needle was inserted vertically into the marked injection site and the HVAI held in place by hand. Target needle insertion depth was ˜10 mm. Injections were timed using a stopwatch. Upon completion of the injection the needle was removed and the HVAI device discarded. Test solution back-leakage was then absorbed to a tared eye-spear for 30 seconds on the injection site and the weight of the eye spear was measured using an analytical balance. The margins of the injection site bleb were marked with a permanent marker and measured for length, width, and height using a digital caliper and recorded then photographed with the standard and 3D cameras. Caliper measurements and photographs were taken immediately post-injection. Local injection sites were qualitatively assessed and graded daily for erythema severity, swelling size appearance, and firmness, using a scoring system described in Table 4 Table 5, and Table 6, respectively.
Approximately, 24 hours post-dosing of the first injection, each animal was re-anesthetized, and injection sites assessed for erythema, induration and swelling, then photographed and returned to its cage.

[2] = pig, in vivo
Experimental: Serum concentrations of total ADC, total antibody and Free Payload (unconjugated SN38) were determined in three separate assays conducted by PPD.
A 20.0-μL sample aliquot was diluted 10-fold. A portion of the diluted sample was taken and processed using an immunoaffinity approach. SMART Digest IA magnetic beads coated with anti-human Fc antibody were used to enrich Trodelvy from matrix. The bound proteins were subjected to “on-bead” proteolysis with trypsin. […] After trypsin digestion, the proteins were further subjected to acidic conditions to release SN-38 from the antibody, which was used for Total ADC quantitation. The following sequences in Table 49 were selected for monitoring in the assay:
VVSV was used for the quantitation of Total Antibody concentrations, DSTY was used for the quantitation of Intact Antibody (trouble shooting purposes only), and SN-38 was used for quantitating Total ADC concentrations.
A nominal unconjugated SN-38, concentration range of […] was chosen to quantitate samples. This assay requires a 50.0 μL porcine serum aliquot. Samples were kept frozen at −80° C. prior to analysis.
A matrix aliquot was fortified with internal standard. Analytes were isolated through protein precipitation. The eluate was evaporated under a nitrogen stream, and the remaining residue reconstituted. Final extracts were analyzed via HPLC MS/MS detection using positive ion electrospray.
Therefore, nominal time points were used for PK analyses. To estimate the serum concentration at time zero for intravenous (IV) data, a second-order polynomial regression was applied to the early serum time points (0.25, 1, and 2 hours). The intercept of the fitted polynomial curve was used as the extrapolated concentration at time zero. Skin concentration data (μg/mL) was normalized to total protein (mg/mL) per sample, resulting in values represented as μg/mg protein.
Pharmacokinetic parameters were calculated using noncompartmental methods performed in Microsoft Excel. The area under the concentration-time curve (AUC) was determined using the linear trapezoidal rule. For serum data, AUC0-7 was calculated using all available time points. For skin data, AUC1-7 was computed based on the three available time point measurements. The maximum observed concentration (Cmax) was identified directly from the dataset, and the time at which it occurred (Tmax) was recorded. All calculations were performed using Microsoft Excel.
Quantitation of total antibody, total ADC, and free payload (SN-38) from Trodelvy in porcine serum and tissue samples was performed via HPLC with MS/MS detection.

[3] = Calculation of drug to antibody ratio (DAR); details: for ADC:free Ab / free Ab:ADC: after adjustment factor
Source text: The Drug-to-Antibody Ratio (DAR) is a critical parameter in antibody drug conjugate development, representing the average number of drug molecules attached to each antibody molecule.

[4] = Post-injection bleb volume, area, height - caliper measurement; type: in vivo, Yucatan miniature pig (Sus scrofa domestica)
Experimental: as §1
Assessment of Local Swelling Volume and Area Using Caliper Measurement and 3D Imaging. Volume and area of post-injection swelling were measured using both caliper measurement and 3D camera image analysis. For caliper measurements a digital caliper was utilized to measure length, width and height of the bleb that formed post-injection. The length and width are defined as the edge to edge measurements of the bleb (i.e., diameter) along their longest axes. These values were manually recorded, and the volume determined using the formula for half of an ellipsoid Vol=(⅔)*π*A*B*C where A=Length/2, B=Width/2 and C=Height.
Assessment of Post-Injection Bleb Volume, Area and Height (Caliper Measurements). The local injection site swelling (bleb) was marked and measured using a digital caliper.

[5] = Example 5: post-injection, 10 mL SC by HVAI
[6] = Example 4 Study #1: bleb after 20 mL SC
[7] = Example 4 Study #2: bleb after 20 mL SC

Sacituzumab govitecan [Trodelvy]
Induration (score) [1, 5]: 3.3 ± 0.3
Swelling Size (score) [1, 5]: 3.1 ± 0.3
Induration at the 24, 48 or 72 hour timepoints ([1]; minipig, 10 mL SC by HVAI): No induration was detected
Swelling at the 24, 48 or 72 hour timepoints ([1]; minipig, 10 mL SC by HVAI): No swelling was detected
Swelling Score (Mean ± SEM) ([1]; minipig, 10 mL SC by HVAI, immediately post-injection, three evaluators, scale 0-4): 3.1 ± 0.3
Induration Score (Mean ± SEM) ([1]; minipig, 10 mL SC by HVAI, immediately post-injection, two evaluators, scale 0-4): 3.3 ± 0.3
Hardness (induration) of post-injection blebs compared with blebs of the co-mix with rHuPH20 ([1]; p<0.05, 10 mL SC): significantly firmer
Relative difference in serum AUC0-7, Free Payload [2]: 59%
Relative difference in serum AUC0-7, TAB [2]: 76%
Relative difference in serum AUC0-7, TADC [2]: 34%
Relative difference in serum Cmax, Free Payload [2]: 38%
Relative difference in serum Cmax, TAB [2]: 44%
Relative difference in serum Cmax, TADC [2]: 13%
TADC/Free Payload, Tmax ([2]; 50 mg): 100%
TADC/TAB, Tmax ([2]; 50 mg): 33%
AUC0-7 of free payload ([2]; iv): 0.1252 µg·days/mL
AUC0-7 of total ADC (TADC) ([2]; iv): 41.44 µg·days/mL
AUC0-7 of total antibody (TAB) ([2]; iv): 193.05 µg·days/mL
Cmax of free payload ([2]; iv): 95.3 ng/mL
Cmax of total ADC (TADC) ([2]; iv): 60550 ng/mL
Cmax of total antibody (TAB) ([2]; iv): 57600 ng/mL
Tmax of free payload ([2]; iv): 0 h
Tmax of total ADC (TADC) ([2]; iv): 0 h
Tmax of total antibody (TAB) ([2]; iv): 0 h
Total ADC Result ([2]; iv, 50 mg, 6 h): 43.9 µg/mL
Total ADC Result ([2]; iv, 50 mg, 24 h): 10 µg/mL
Total ADC Result ([2]; iv, 50 mg, 48 h): 2.27 µg/mL
Total ADC Result ([2]; iv, 50 mg, 72 h): 0.751 µg/mL
Total ADC Result ([2]; iv, 50 mg, 96 h): <0.500 µg/mL
Total ADC Result ([2]; iv, 50 mg, 168 h): 0.1 µg/mL
serum concentration of total ADC (TADC) ([2]; iv, 6 h): 43.90 µg/mL
serum concentration of total ADC (TADC) ([2]; iv, 24 h): 10.00 µg/mL
serum concentration of total ADC (TADC) ([2]; iv, 48 h): 2.27 µg/mL
serum concentration of total ADC (TADC) ([2]; iv, 72 h): 0.75 µg/mL
serum concentration of total ADC (TADC) ([2]; iv, 96 h): <0.50^b μg/mL
serum concentration of total ADC (TADC) ([2]; iv, 168 h): 0.10 µg/mL
Tmax of free payload ([2]; sc): 24 h
serum concentration of total ADC (TADC) ([2]; sc, 0 h): <0.10^b μg/mL
serum concentration of total ADC (TADC) ([2]; sc, 6 h): 4.96 µg/mL
serum concentration of total ADC (TADC) ([2]; sc, 24 h): 7.87 µg/mL
serum concentration of total ADC (TADC) ([2]; sc, 48 h): 2.77 µg/mL
serum concentration of total ADC (TADC) ([2]; sc, 72 h): 1.00 µg/mL
serum concentration of total ADC (TADC) ([2]; sc, 168 h): 0.13 µg/mL
% DAR remaining (which may be ~ADC/ total Ab) ([3]; Day 1): 76.2%
% DAR remaining after adjustment factor to allow for variability (line without head) ([3]; Day 1): 68.6%
ADC:free Ab ([3]; Day 1): 218.2%
free Ab:ADC ([3]; Day 1): 45.8%
% DAR remaining (which may be ~ADC/ total Ab) ([3]; Day 7): 42.9%
% DAR remaining after adjustment factor to allow for variability (line without head) ([3]; Day 7): 34.3%
ADC:free Ab ([3]; Day 7): 52.2%
free Ab:ADC ([3]; Day 7): 191.7%
% DAR remaining (which may be ~ADC/ total Ab) ([3]; Day 14): 31.0%
% DAR remaining after adjustment factor to allow for variability (line without head) ([3]; Day 14): 24.8%
ADC:free Ab ([3]; Day 14): 32.9%
free Ab:ADC ([3]; Day 14): 303.8%
% DAR remaining (which may be ~ADC/ total Ab) ([3]; Day 21): 23.8%
% DAR remaining after adjustment factor to allow for variability (line without head) ([3]; Day 21): 19.0%
ADC:free Ab ([3]; Day 21): 23.5%
free Ab:ADC ([3]; Day 21): 425.0%
Height (mm) (Mean ± SEM) [4, 6]: 10.8 ± 0.6 mm
Volume (cc) (Mean ± SEM) [4, 6]: 65.5 ± 3.6 cc
Height (mm) (Mean ± SEM) [4, 7]: 10.8 ± 0.6 mm
Volume (cc) (Mean ± SEM) [4, 7]: 65.5 ± 3.6 cc
Post-injection bleb Area, caliper (Mean ± SEM) ([4]; minipig, 10 mL SC by HVAI, Trodelvy (ADC) ± rHuPH20 2000 U/mL, T0, n=3, Examples 1, 2, 5): 25.4 ± 0.5
Post-injection bleb Volume, caliper (Mean ± SEM) ([4]; minipig, 10 mL SC by HVAI, Trodelvy (ADC) ± rHuPH20 2000 U/mL, T0, n=3, Examples 1, 2, 5 (FIG. 3: mL)): 44.3 ± 4.0
Post-injection bleb Height, caliper (Mean ± SEM) ([4]; minipig, 10 mL SC by HVAI, Trodelvy (ADC) ± rHuPH20 2000 U/mL, T0, n=3, Examples 1, 2, 5 (FIG. 5: mm)): 8.7 ± 0.7

From patent publication US20260069707A1, “COMBINATION THERAPY WITH ANTIBODY-DRUG CONJUGATES AND HYALURONIDASES” (HALOZYME, INC., priority 2024, published 2026)
